Results taken from patent US11787839B2, “Targeting α2δ-1-bound glutamate receptors for treating diseases and disorders” (Board of Regents, The University of Texas System, priority 2017, dated 2023).

Key:
paclitaxel-treated rats = test: Paclitaxel-induced pain hypersensitivity in rats; assay type: in vivo, rat; conditions: intrathecal 5 μg pregabalin, 1 μg peptides
Protocol: To induce neuropathic pain, rats and mice were intraperitoneally injected with paclitaxel (2 mg/kg; TEVA Pharmaceuticals, North Wales, Pa.) every 2 days for a total of 4 injections (days 1, 3, 5 and 7; total dose, 8 mg/kg), as described previously (Polomano et al., 2001). Animals in the control group were intraperitoneally injected with the vehicle (Cremophor EL/ethanol, 1:1) on the same 4 days. The presence of tactile allodynia was confirmed 10 to 12 days after drug treatment. Intrathecal catheters were implanted in some paclitaxel-treated rats during isoflurane-induced anesthesia. Briefly, a small puncture was made in the atlanto-occipital membrane of the cisterna magna and inserted a PE-10 catheter with the caudal tip reaching the lumbar enlargement of the spinal cord (Chen et al., 2014a; Xie et al., 2016).
Behavioral assessment of nociception: To measure tactile allodynia, mice or rats were individually placed on a mesh floor within a suspended chamber. […]
To quantify the mechanical nociceptive threshold in rats, the paw pressure (Randall-Selitto) test was conducted on the left hindpaw using an analgesiometer (Ugo Basile, Varese, Italy). […] When the rat withdrew its paw or vocalized, the pedal was immediately released, and the withdrawal threshold was recorded (Chen et al., 2014a). […]
To assess the thermal sensitivity of rats, the were placed individually on the glass surface of a thermal testing apparatus (IITC Life Sciences, Woodland Hills, Calif.). […] The paw withdrawal latency was recorded with a timer, and the hindpaw was tested twice to obtain an average time. […] After the threshold temperature was recorded, the mice were immediately removed from the plate. The heat threshold measurement was repeated 30 min later, and the average of the 2 recorded temperatures was considered as the heat threshold. The cold threshold was measured by cooling the plate from 30° C. at a rate of 6° C./min until nocifensive behaviors were observed. […]

[1] = target: T1, α2δ-1 and NMDAR subunits in spinal cord synaptosomes (Rattus norvegicus, UniProt P35439+Q00959+Q00960); test: Protein levels in spinal cord synaptosomes of treated slices (SNL, sham); assay type: cell-based; conditions: SNL rats; slices treated 30 min
T1 construct: from tissue; host or cells: rat lumbar spinal cord slices (lamina II neurons) and synaptosomes made from them
T1 sequence (Q00959 20-1464 limits assumed, other chains not shown): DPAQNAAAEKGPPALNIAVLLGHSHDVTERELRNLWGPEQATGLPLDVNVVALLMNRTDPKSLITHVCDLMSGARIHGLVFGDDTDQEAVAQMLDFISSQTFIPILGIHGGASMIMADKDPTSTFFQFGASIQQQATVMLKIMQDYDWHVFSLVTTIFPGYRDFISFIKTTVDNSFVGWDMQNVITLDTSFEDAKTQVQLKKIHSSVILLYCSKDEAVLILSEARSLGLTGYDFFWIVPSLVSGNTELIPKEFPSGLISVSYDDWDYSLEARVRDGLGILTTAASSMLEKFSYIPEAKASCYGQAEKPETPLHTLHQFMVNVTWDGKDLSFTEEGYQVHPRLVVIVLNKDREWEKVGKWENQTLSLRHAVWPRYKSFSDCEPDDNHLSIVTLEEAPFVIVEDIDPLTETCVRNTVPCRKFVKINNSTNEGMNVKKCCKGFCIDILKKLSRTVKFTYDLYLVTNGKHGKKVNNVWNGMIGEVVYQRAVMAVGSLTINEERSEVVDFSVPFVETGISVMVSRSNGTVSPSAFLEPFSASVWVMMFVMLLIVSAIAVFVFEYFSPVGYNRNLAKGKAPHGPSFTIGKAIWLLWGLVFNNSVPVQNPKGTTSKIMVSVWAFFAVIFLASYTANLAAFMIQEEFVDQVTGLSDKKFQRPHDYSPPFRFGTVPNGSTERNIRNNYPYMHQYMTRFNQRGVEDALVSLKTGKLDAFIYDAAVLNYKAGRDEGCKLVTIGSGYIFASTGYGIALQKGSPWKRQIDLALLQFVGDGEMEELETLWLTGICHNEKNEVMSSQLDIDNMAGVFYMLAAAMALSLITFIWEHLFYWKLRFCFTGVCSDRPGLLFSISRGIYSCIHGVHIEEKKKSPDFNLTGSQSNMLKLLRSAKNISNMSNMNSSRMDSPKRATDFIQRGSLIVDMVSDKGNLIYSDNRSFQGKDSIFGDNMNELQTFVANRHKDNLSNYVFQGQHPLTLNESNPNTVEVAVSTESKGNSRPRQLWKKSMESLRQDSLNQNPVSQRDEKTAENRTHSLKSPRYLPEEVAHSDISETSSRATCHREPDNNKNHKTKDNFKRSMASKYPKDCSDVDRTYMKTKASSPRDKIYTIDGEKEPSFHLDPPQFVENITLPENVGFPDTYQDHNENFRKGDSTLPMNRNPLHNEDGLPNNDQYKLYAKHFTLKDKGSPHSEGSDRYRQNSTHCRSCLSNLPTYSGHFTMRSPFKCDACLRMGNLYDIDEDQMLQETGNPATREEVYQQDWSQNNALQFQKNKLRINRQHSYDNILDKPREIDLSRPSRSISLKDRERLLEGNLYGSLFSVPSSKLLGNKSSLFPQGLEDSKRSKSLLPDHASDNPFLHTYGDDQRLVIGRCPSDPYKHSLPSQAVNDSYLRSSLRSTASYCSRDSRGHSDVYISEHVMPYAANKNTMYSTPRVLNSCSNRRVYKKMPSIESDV
T1 sequence (Q00960 27-1482, other chains not shown): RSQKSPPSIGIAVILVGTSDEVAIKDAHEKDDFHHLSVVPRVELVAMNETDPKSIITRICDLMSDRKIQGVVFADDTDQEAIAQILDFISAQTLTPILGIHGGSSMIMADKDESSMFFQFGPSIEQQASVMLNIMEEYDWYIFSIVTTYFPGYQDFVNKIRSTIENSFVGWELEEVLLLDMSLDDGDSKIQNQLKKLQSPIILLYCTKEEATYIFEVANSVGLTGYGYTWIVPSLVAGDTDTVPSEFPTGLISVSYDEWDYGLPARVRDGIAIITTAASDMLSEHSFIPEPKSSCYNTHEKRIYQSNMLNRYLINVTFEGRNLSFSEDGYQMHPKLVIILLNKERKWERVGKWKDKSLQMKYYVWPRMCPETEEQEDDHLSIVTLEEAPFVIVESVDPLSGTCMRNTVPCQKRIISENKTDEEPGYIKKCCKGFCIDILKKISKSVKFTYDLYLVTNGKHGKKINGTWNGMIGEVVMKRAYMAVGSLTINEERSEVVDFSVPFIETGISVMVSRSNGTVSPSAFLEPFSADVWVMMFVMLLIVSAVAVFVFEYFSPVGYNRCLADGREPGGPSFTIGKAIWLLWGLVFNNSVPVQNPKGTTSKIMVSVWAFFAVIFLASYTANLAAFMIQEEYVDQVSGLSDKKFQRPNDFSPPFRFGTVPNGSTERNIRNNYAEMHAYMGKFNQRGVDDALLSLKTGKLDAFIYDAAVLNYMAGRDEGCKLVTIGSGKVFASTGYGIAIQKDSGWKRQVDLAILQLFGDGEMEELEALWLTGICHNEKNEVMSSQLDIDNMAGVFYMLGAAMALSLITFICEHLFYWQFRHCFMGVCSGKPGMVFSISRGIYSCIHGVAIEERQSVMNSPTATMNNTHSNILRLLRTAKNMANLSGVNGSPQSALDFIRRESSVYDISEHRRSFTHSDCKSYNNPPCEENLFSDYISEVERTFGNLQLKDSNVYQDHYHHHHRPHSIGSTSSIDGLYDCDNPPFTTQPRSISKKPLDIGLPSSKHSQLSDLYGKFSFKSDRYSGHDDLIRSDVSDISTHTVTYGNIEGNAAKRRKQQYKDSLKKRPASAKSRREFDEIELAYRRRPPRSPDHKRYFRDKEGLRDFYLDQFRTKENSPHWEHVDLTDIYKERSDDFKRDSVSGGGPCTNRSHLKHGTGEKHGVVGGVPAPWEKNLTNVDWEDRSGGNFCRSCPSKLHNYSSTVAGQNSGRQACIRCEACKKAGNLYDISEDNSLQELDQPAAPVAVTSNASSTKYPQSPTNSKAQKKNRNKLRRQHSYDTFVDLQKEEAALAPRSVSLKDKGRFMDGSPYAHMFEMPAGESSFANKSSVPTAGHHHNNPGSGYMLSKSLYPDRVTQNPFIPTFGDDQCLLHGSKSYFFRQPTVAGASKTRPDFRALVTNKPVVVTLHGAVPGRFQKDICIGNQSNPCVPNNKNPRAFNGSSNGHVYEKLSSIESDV
Protocol: PSD-95, a known postsynaptic protein, was used as an internal control.
Spinal cord synaptosome preparation: The spinal cord slices were pooled from 2 rats and were homogenized using glass-Teflon homogenizer in 10 volumes of ice-cold HEPES-buffered sucrose (0.32 M sucrose, 1 mM EGTA, and 4 mM HEPES at pH 7.4) containing the protease inhibitor cocktail (Sigma-Aldrich). The homogenate was centrifuged at 1,000×g for 10 min at 4° C. to remove the nuclei and large debris. […] The synaptosomal pellet was lysed via hypo-osmotic shock in 9 volumes of ice-cold HEPES-buffer with the protease inhibitor cocktail for 30 min. The lysate was centrifuged at 25,000×g for 20 min at 4° C. to obtain the synaptosomal membrane fraction, which was then dissolved in sodium dodecyl sulfate sample buffer at a final concentration of 0.25 μg/μl for immunoblotting. […] The α2δ-1Tat peptide and scrambled control peptide were synthesized by Bio Basic Inc. (Marham, Ontario, Canada) and validated by using liquid chromatography and mass spectrometry.

[2] = target: T2, α2δ-1-GluN1 protein complex (Mus musculus, UniProt O08532+P35438); test: Co-IP of α2δ-1 and GluN1 in mouse brain slices; assay type: cell-based
T2 construct: from tissue; host or cells: mouse brain slices (hippocampal CA1, hypothalamic PVN, brain tissue membrane extracts)
T2 sequence (O08532 25-956 limits assumed, other chains not shown): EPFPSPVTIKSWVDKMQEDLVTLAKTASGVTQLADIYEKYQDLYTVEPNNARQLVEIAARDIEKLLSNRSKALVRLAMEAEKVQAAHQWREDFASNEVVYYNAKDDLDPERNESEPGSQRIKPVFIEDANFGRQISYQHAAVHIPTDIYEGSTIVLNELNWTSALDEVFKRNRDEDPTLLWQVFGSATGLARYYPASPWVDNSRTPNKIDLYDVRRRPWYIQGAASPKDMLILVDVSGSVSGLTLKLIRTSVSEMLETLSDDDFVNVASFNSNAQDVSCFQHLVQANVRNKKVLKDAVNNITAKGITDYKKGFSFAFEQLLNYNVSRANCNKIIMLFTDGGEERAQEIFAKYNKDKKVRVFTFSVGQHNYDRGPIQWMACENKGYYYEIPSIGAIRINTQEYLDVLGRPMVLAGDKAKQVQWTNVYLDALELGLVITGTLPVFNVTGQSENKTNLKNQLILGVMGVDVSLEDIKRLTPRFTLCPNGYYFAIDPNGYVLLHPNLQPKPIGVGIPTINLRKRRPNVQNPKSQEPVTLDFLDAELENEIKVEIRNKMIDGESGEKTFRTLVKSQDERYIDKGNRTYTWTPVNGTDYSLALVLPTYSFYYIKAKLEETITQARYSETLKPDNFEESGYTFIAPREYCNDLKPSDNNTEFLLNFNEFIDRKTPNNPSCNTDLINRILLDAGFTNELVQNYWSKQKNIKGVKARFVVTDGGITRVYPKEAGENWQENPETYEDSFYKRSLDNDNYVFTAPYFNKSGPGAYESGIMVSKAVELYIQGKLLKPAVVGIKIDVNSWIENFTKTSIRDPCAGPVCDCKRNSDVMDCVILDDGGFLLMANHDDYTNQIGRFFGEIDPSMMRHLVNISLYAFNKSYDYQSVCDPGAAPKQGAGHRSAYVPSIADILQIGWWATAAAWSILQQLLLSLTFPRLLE
Protocol: FIGS. 22A-22D: α2δ-1-bound NMDARs contribute to brain injury and neurological deficit caused by MCAO in the brain. (A) Upper: Original gel images of coimmunoprecipitation (co-IP) analysis show the interaction between α2δ-1 and GluN1 in two samples from mouse brain tissues; Lower: Effect of α2δ-1Tat peptide (1 μM for 60 min) on the α2δ-1-GluN1 protein complex in mouse brain tissues (n=6 mice per group). (B) Representative gel images and quantification of co-IP analysis show the effect of OGD on the α2δ-1-GluN1 or α2δ-1-Cav2.2 association in mouse brain tissues (n=6 mice per group). IgG and input were used as negative and positive controls, respectively. (C) Original gel images and quantification of co-IP analysis show the effect of α2δ-1Tat peptide (P) and control peptide (C; both 1 μM for 30 min) on the α2δ-1-GluN1 or α2δ-1-Cav2.2 association in mouse brain slices subjected to OGD (O, n=6 mice per group). (D) Neurological severity scores (left) and representative TTC staining and quantification (right) of brain infarct volume in MCAO mice treated with α2δ-1Tat peptide or control peptide (both 200 μg/kg, i.p.) at 15 min before MCAO and immediately before reperfusion (n=8 mice per group). Data are shown as means±SEM. *p<0.05, **p<0.01 compared with the control peptide- or vehicle-treated group (paired Student's t-test for panels B-D and F; Mann-Whitney test for panel E). […]

YGRKKRRQRRRVSGLNPSLWSIFGLQFILLWLVSGSRHYLW (a2d1 peptide) [α2δ-1Tat peptide, 30-amino-acid peptide mimicking the C-terminal domain of α2δ-1 fused to the cell-penetrating peptide Tat]
paclitaxel-induced pain hypersensitivity (tactile allodynia, mechanical and thermal hyperalgesia) (paclitaxel-treated rats): markedly attenuated
increased protein levels of GluN1, GluN2A, GluN2B and α2δ-1 in spinal cord synaptosomes [1]: largely normalized
α2δ-1-GluN1 interaction in brain tissues subjected to OGD ([2]; OGD, 1 μM for 30 min): substantially reduced
α2δ-1-GluN1 protein complex in brain tissues ([2]; brain slices, 1 μM for 60 min): large reduction
